Data from the supplement of paper PMC12042874.
± gives the uncertainty stated by the source.

Assay: amyloid nucleation score (Sup35N fusion, yeast selection) (log enrichment); library NNK1; higher = more nucleation; inactive = no reads after selection
How it was run: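 The nucleation score, computed with DiMSum, is the log enrichment of output over input reads, centred on the mode score of non-aggregating sequences. Sequences with under 100 input reads were dropped. Reads were generated by Illumina sequencing of plasmid inserts from psi-negative yeast with Sup35N fused to peptides of 20 random codons, induced with 100 μM copper sulfate for 24 hours and grown 7 days at 30°C on medium lacking adenine and uracil.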

**Q.** Which amyloid nucleation score does the source give for YYNFCMDRRLLDNGTNGSKS here?
**A.** Its amyloid nucleation score is -0.016 ± 1.7.

**Q.** For YYNRFILRSWEGSSMGLWSC, which amyloid nucleation score is on record?
**A.** The amyloid nucleation score was -0.582 ± 0.36.

**Q.** With YYPVKSFELGWSHLGGKHWA as the sequence, how does the amyloid nucleation score read?
**A.** The amyloid nucleation score was 1.34 ± 0.7.

**Q.** With YYWRPIQVVCLLASCKRTWR as the sequence, how does the amyloid nucleation score read?
**A.** Its amyloid nucleation score is 7.749 ± 0.064.
